Source: paper PMC6476560 (PLoS ONE, 2019)

B1: wild-type MtbMpa (mycobacterial proteasomal ATPase), hexamer (enzyme)
chain: MGESERSEAFGIPRDSPLSSGDAAELEQLRREAAVLREQLENAVGSHAPTRSARDIHQLEARIDSLAARNSKLMETLKEARQQLLALREEVDRLGQPPSGYGVLLATHDDDTVDVFTSGRKMRLTCSPNIDAASLKKGQTVRLNEALTVVEAGTFEAVGEISTLREILADGHRALVVGHADEERVVWLADPLIAEDLPDGLPEALNDDTRPRKLRPGDSLLVDTKAGYAFERIPKAEVEDLVLEEVPDVSYADIGGLSRQIEQIRDAVELPFLHKELYREYSLRPPKGVLLYGPPGCGKTLIAKAVANSLAKKMAEVRGDDAHEAKSYFLNIKGPELLNKFVGETERHIRLIFQRAREKASEGTPVIVFFDEMDSIFRTRGTGVSSDVETTVVPQLLSEIDGVEGLENVIVIGASNREDMIDPAILRPGRLDVKIKIERPDAEAAQDIYSKYLTEFLPVHADDLAEFDGDRSACIKAMIEKVVDRMYAEIDDNRFLEVTYANGDKEVMYFKDFNSGAMIQNVVDRAKKNAIKSVLETGQPGLRIQHLLDSIVDEFAENEDLPNTTNPDDWARISGKKGERIVYIRTLVTGKSSSASRAIDTESNLGQYL

Assays:
Assay in all cases: MST
Conditions in all cases: both partners purified
[1] = biological target: Pup-PckA-Fl (fluorescein-labelled pupylated phosphoenolpyruvate carboxykinase PckA) (Mycobacterium tuberculosis, UniProt P9WIH3;P9WHN5, PupE (C-terminal glutamine as glutamate))
[2] = biological target: B1
[3] = biological target: T1, fluorescently labelled Dop (deamidase of Pup; depupylase) (UniProt P9WNU9 1-505)
T1 sequence: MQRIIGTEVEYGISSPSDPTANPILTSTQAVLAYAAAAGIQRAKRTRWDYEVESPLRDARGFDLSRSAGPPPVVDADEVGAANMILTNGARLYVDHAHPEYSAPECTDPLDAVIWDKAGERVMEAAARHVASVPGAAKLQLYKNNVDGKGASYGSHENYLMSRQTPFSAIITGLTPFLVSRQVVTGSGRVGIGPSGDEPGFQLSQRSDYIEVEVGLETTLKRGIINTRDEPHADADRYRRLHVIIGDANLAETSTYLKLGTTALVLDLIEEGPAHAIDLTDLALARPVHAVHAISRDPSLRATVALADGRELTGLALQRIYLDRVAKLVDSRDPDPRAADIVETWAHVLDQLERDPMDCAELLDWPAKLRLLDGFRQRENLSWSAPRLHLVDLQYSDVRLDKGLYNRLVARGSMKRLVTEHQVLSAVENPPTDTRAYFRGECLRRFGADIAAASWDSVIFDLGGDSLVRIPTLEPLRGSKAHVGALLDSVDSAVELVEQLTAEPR

Binder: B1
- Kd [1]: 0.21 ± 0.1 µM

B2: Pup-Icl1-Fl (fluorescein-labelled pupylated isocitrate lyase 1 Icl1) (complex)
chain 1: MSVVGTPKSAEQIQQEWDTNPRWKDVTRTYSAEDVVALQGSVVEEHTLARRGAEVLWEQLHDLEWVNALGALTGNMAVQQVRAGLKAIYLSGWQVAGDANLSGHTYPDQSLYPANSVPQVVRRINNALQRADQIAKIEGDTSVENWLAPIVADGEAGFGGALNVYELQKALIAAGVAGSHWEDQLASEKKCGHLGGKVLIPTQQHIRTLTSARLAADVADVPTVVIARTDAEAATLITSDVDERDQPFITGERTREGFYRTKNGIEPCIARAKAYAPFADLIWMETGTPDLEAARQFSEAVKAEYPDQMLAYNCSPSFNWKKHLDDATIAKFQKELAAMGFKFQFITLAGFHALNYSMFDLAYGYAQNQMSAYVELQEREFAAEERGYTATKHQREVGAGYFDRIATTVDPNSSTTALTGSTEEGQFH
chain 2: MAQEQTKRGGGGGDDDDIAGSTAAGQERREKLTEETDDLLDEIDDVLEENAEDFVRAYVQKGGE
notes: copies: 4 + 2
- Kd [2]: 0.16 ± 0.03 µM

B3: Pup-Icl1 (pupylated isocitrate lyase 1 Icl1), unlabelled (complex)
chain 1: MSVVGTPKSAEQIQQEWDTNPRWKDVTRTYSAEDVVALQGSVVEEHTLARRGAEVLWEQLHDLEWVNALGALTGNMAVQQVRAGLKAIYLSGWQVAGDANLSGHTYPDQSLYPANSVPQVVRRINNALQRADQIAKIEGDTSVENWLAPIVADGEAGFGGALNVYELQKALIAAGVAGSHWEDQLASEKKCGHLGGKVLIPTQQHIRTLTSARLAADVADVPTVVIARTDAEAATLITSDVDERDQPFITGERTREGFYRTKNGIEPCIARAKAYAPFADLIWMETGTPDLEAARQFSEAVKAEYPDQMLAYNCSPSFNWKKHLDDATIAKFQKELAAMGFKFQFITLAGFHALNYSMFDLAYGYAQNQMSAYVELQEREFAAEERGYTATKHQREVGAGYFDRIATTVDPNSSTTALTGSTEEGQFH
chain 2: MAQEQTKRGGGGGDDDDIAGSTAAGQERREKLTEETDDLLDEIDDVLEENAEDFVRAYVQKGGE
notes: copies: 4 + 2
- Kd [3]: 0.129 ± 0.041 µM
